Data reported in the supplement of paper PMC10567573.

B1: C22orf15 (parent)
chain: PRGRAHLLPNPYQQDFLGLPEELR

Variants of: B1
Experiment: protein stability index of a GFP-peptide fusion (GPS, HEK-293T) (PSI 1-6); higher = more stable
Conditions: c terminus: a fixed tail appended
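Note: lentivirally expressed fusions sorted by FACS into six bins by GFP to DsRed ratio, PSI derived from sequencing read proportions per bin multiplied by bin number.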

Variant	protein stability index
PRGRAELLPNPYQQDFLGLPEELR [H6E]	4.58
PRGRAWLLPNPYQQDFLGLPEELR [H6W]	2.85
PRGRASLLPNPYQQDFLGLPEELR [H6S]	3.81
PRGRAQLLPNPYQQDFLGLPEELR [H6Q]	3.75
PRGRALLLPNPYQQDFLGLPEELR [H6L]	3.44
PRGRAKLLPNPYQQDFLGLPEELR [H6K]	3.87
PRGRAALLPNPYQQDFLGLPEELR [H6A]	3.57
PRGRAYLLPNPYQQDFLGLPEELR [H6Y]	3.02
PRGRATLLPNPYQQDFLGLPEELR [H6T]	3.87
PRGRADLLPNPYQQDFLGLPEELR [H6D]	4.4
PRGRANLLPNPYQQDFLGLPEELR [H6N]	4.26
PRGRAFLLPNPYQQDFLGLPEELR [H6F]	2.99
PRGRAMLLPNPYQQDFLGLPEELR [H6M]	4.04
PRGRAVLLPNPYQQDFLGLPEELR [H6V]	3.54
PRGRAPLLPNPYQQDFLGLPEELR [H6P]	3.93
PRGRAILLPNPYQQDFLGLPEELR [H6I]	3.65
PRGRARLLPNPYQQDFLGLPEELR [H6R]	3.71
PRGRACLLPNPYQQDFLGLPEELR [H6C]	3.68
PRGRAGLLPNPYQQDFLGLPEELR [H6G]	4.26
PRGRAHPLPNPYQQDFLGLPEELR [L7P]	4.06
PRGRAHQLPNPYQQDFLGLPEELR [L7Q]	3.86
PRGRAHSLPNPYQQDFLGLPEELR [L7S]	4.98
PRGRAHTLPNPYQQDFLGLPEELR [L7T]	5.36
PRGRAHCLPNPYQQDFLGLPEELR [L7C]	3.84

Variant	protein stability index
PRGRAHVLPNPYQQDFLGLPEELR [L7V]	4.12
PRGRAHNLPNPYQQDFLGLPEELR [L7N]	4.33
PRGRAHALPNPYQQDFLGLPEELR [L7A]	4.23
PRGRAHYLPNPYQQDFLGLPEELR [L7Y]	3.92
PRGRAHILPNPYQQDFLGLPEELR [L7I]	3.8
PRGRAHMLPNPYQQDFLGLPEELR [L7M]	4.18
PRGRAHGLPNPYQQDFLGLPEELR [L7G]	4.08
PRGRAHRLPNPYQQDFLGLPEELR [L7R]	4.12
PRGRAHDLPNPYQQDFLGLPEELR [L7D]	3.96
PRGRAHWLPNPYQQDFLGLPEELR [L7W]	3.24
PRGRAHELPNPYQQDFLGLPEELR [L7E]	4.62
PRGRAHKLPNPYQQDFLGLPEELR [L7K]	4
PRGRAHHLPNPYQQDFLGLPEELR [L7H]	3.9
PRGRAHFLPNPYQQDFLGLPEELR [L7F]	3.84
PRGVAHLLPNPYQQDFLGLPEELR [R4V]	3.86
PRGWAHLLPNPYQQDFLGLPEELR [R4W]	2.96
PRGFAHLLPNPYQQDFLGLPEELR [R4F]	3.77
PRGPAHLLPNPYQQDFLGLPEELR [R4P]	3.92
PRGNAHLLPNPYQQDFLGLPEELR [R4N]	3.99
PRGGAHLLPNPYQQDFLGLPEELR [R4G]	4.27
PRGLAHLLPNPYQQDFLGLPEELR [R4L]	3.59
PRGCAHLLPNPYQQDFLGLPEELR [R4C]	2.85
PRGSAHLLPNPYQQDFLGLPEELR [R4S]	3.81
PRGAAHLLPNPYQQDFLGLPEELR [R4A]	4.23

Variant	protein stability index
PRGEAHLLPNPYQQDFLGLPEELR [R4E]	3.96
PRGMAHLLPNPYQQDFLGLPEELR [R4M]	3.42
PRGKAHLLPNPYQQDFLGLPEELR [R4K]	3.36
PRGQAHLLPNPYQQDFLGLPEELR [R4Q]	3.73
PRGIAHLLPNPYQQDFLGLPEELR [R4I]	3.24
PRGDAHLLPNPYQQDFLGLPEELR [R4D]	4.25
PRGYAHLLPNPYQQDFLGLPEELR [R4Y]	3.57
PRGTAHLLPNPYQQDFLGLPEELR [R4T]	3.68
PRGHAHLLPNPYQQDFLGLPEELR [R4H]	4.06
PRGRAHLDPNPYQQDFLGLPEELR [L8D]	4.6
PRGRAHLRPNPYQQDFLGLPEELR [L8R]	3.56
PRGRAHLVPNPYQQDFLGLPEELR [L8V]	4.02
PRGRAHLHPNPYQQDFLGLPEELR [L8H]	3.86
PRGRAHLMPNPYQQDFLGLPEELR [L8M]	3.95
PRGRAHLPPNPYQQDFLGLPEELR [L8P]	4
PRGRAHLKPNPYQQDFLGLPEELR [L8K]	3.98
PRGRAHLEPNPYQQDFLGLPEELR [L8E]	3.96
PRGRAHLNPNPYQQDFLGLPEELR [L8N]	4.09
PRGRAHLQPNPYQQDFLGLPEELR [L8Q]	4.24
PRGRAHLAPNPYQQDFLGLPEELR [L8A]	3.58
PRGRAHLGPNPYQQDFLGLPEELR [L8G]	3.59
PRGRAHLSPNPYQQDFLGLPEELR [L8S]	3.93
PRGRAHLWPNPYQQDFLGLPEELR [L8W]	2.56
PRGRAHLIPNPYQQDFLGLPEELR [L8I]	3.94

Variant	protein stability index
PRGRAHLFPNPYQQDFLGLPEELR [L8F]	3.49
PRGRAHLCPNPYQQDFLGLPEELR [L8C]	4.14
PRGRAHLTPNPYQQDFLGLPEELR [L8T]	3.23
PRGRRHLLPNPYQQDFLGLPEELR [A5R]	3.34
PRGRKHLLPNPYQQDFLGLPEELR [A5K]	3.32
PRGRHHLLPNPYQQDFLGLPEELR [A5H]	3.78
PRGRQHLLPNPYQQDFLGLPEELR [A5Q]	4.07
PRGRNHLLPNPYQQDFLGLPEELR [A5N]	4.1
PRGRCHLLPNPYQQDFLGLPEELR [A5C]	2.69
PRGRTHLLPNPYQQDFLGLPEELR [A5T]	4.05
PRGREHLLPNPYQQDFLGLPEELR [A5E]	3.9
PRGRMHLLPNPYQQDFLGLPEELR [A5M]	3.48
PRGRSHLLPNPYQQDFLGLPEELR [A5S]	4.04
PRGRLHLLPNPYQQDFLGLPEELR [A5L]	3.12
PRGRFHLLPNPYQQDFLGLPEELR [A5F]	2.69
PRGRVHLLPNPYQQDFLGLPEELR [A5V]	3.63
PRGRGHLLPNPYQQDFLGLPEELR [A5G]	3.63
PRGRYHLLPNPYQQDFLGLPEELR [A5Y]	2.98
PRGRWHLLPNPYQQDFLGLPEELR [A5W]	2.62
PRGRDHLLPNPYQQDFLGLPEELR [A5D]	4.25
PRGRIHLLPNPYQQDFLGLPEELR [A5I]	2.96
PRGRPHLLPNPYQQDFLGLPEELR [A5P]	3.56
